{"source": "paper PMC6971430", "about": "“Manipulation of the dually thermoresponsive behavior of peptide‐based vesicles through modification of collagen‐like peptide domains” (Bioengineering & Translational Medicine, 2019)", "key": {"[1]": {"target": "the molecule itself", "experiment": "circular dichroism spectroscopy; ELP-CLP conjugates, wavelength scans at 0.1 mM and melting scans at 0.35 mM in HPLC grade water (pH 6.5 at 4°C), 0.2 cm cuvette; monomers to triple helix"}, "[2]": {"target": "the molecule itself", "experiment": "circular dichroism spectroscopy; free CLP peptides, 0.35 mM in HPLC grade water (pH 6.5 at 4°C), 0.2 cm cuvette; wavelength scans at 4 and 80°C and melting scans; monomers to triple helix"}}, "note": "Non-standard residues stand in square brackets, D forms with d. No end group written: not given here. *: point of attachment. Butanoyl(4-N3) = [N-]=[N+]=NCCCC(=O)*; Hyp = O=C(O)[C@@H]1C[C@@H](O)CN1; Pra = C#CC[C@H](N)C(=O)O", "data": [{"protein": "(VPGFG)6-(GPO)3GFOGER(GPO)3GG (triazole (positions not given here); not fully specified (residue 31, bridges); also: no peptide bond between residues 31 and 32, the two parts are joined by azide-alkyne cycloaddition, elastin-like peptide NH2-(VPGFG)6G', written out here; the last G stands for G' (propargylglycine); collagen-like peptide (GPO)3GFOGER(GPO)3GG as in m2; the printed O (hydroxyproline) is written as P; Two synthetic peptides joined through a triazole, written as one chain; Reaction details are in Supporting Information Section 1.2; also called F6-GFOGER; ELP-CLP conjugate; source: synthetic …) H-VPGFGVPGFGVPGFGVPGFGVPGFGVPGFG[Pra]GP[Hyp]GP[Hyp]GP[Hyp]GF[Hyp]GERGP[Hyp]GP[Hyp]GP[Hyp]GG", "values": [{"measurement": "stoichiometry N", "setting": "[1]", "value": 3}]}, {"protein": "{Butanoyl(4-N3)}-GP[Hyp]GP[Hyp]GP[Hyp]GF[Hyp]GERGP[Hyp]GP[Hyp]GP[Hyp]GG (collagen-like peptide, printed in short form as N3-(GPO)3GFOGER(GPO)3GG and written out here; Forms a homotrimeric triple helix; details are in Supporting Information Section 1.1; also called CLP; source: synthetic peptide (Fmoc solid phase synthesis), purified by RP-HPLC)", "note": "[N3-(GPO)3GFOGER(GPO)3GG]", "values": [{"measurement": "stoichiometry N", "setting": "[2]", "value": 3}]}]}
